Source: article doi:10.1101/2025.11.21.689414 (bioRxiv, 2025)

What was measured:
[1] = molecular target: parvin alpha (PARVA) (Homo sapiens (species ; …, UniProt Q9NVD7); assay: ELISA
[2] = molecular target: Frizzled class receptor 7 (Fzd7), His-tagged (UniProt O75084); assay: BLI
[3] = molecular target: alpha hemoglobin stabilizing protein (AHSP) (Homo sapiens (species ; …, UniProt Q9NZD4); assay: ELISA
alpha hemoglobin stabilizing protein (AHSP) (Homo sapiens, sequence (Q9NZD4 whole entry): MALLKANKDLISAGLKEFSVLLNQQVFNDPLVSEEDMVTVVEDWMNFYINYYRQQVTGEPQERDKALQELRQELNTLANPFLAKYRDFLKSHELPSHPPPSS

parvin alpha (PARVA) (Homo sapiens, sequence (Q9NVD7 whole entry): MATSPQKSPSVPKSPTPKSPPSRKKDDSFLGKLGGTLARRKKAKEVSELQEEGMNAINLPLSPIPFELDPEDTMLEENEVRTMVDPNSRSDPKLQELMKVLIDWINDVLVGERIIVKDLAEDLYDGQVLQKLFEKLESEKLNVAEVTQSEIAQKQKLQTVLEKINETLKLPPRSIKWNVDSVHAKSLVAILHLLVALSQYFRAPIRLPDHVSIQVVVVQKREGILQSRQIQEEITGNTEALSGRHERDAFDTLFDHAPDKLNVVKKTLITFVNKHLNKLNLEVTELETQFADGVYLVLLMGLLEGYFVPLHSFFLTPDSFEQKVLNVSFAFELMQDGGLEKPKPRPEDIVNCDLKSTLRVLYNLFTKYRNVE

B1: representative PARVA binder (GaluxDesign de novo designed full-length IgG, cross-platform benchmark) (antibody, V domains shown)
VH: EEQLVESGGGLVQPGGSLRLSCAASGFNIKDYWIHWVRQAPGKGLEWVAWINPQSGWTNYADSVKGRFTISADTSKNTAYLQMNSLRAEDTATYYCAKIGDWGGKGYALDVWGQGTLVTVSS
VL: DIVMTQSPSSLSASVGDRVTITCRASQDISTALAWYQQKPGQAPKLLIYKASSLASGVPSRFSGSGSGTDFTLTISSLQPEDFATYYCQQFRDLSTLTFGQGTKVEIK
B1: binds [1].

B2: F7.B (reference anti-Fzd7 antibody, PDB entry 6O3A) (antibody, V domains shown)
VH: EVQLVESGGGLVQPGGSLRLSCAASGFNFSSSSIHWVRQAPGKGLEWVAYIYPSYDYTYYADSVKGRFTISADTSKNTAYLQMNSLRAEDTAVYYCARGYFYTWGGMDYWGQGTLVTVSS
VL: DIQMTQSPSSLSASVGDRVTITCRASQSVSSAVAWYQQKPGKAPKLLIYSASSLYSGVPSRFSGSRSGTDFTLTISSLQPEDFATYYCQQYYSLFTFGQGTKVEIK
B2: binds [2].

B3: representative AHSP binder (GaluxDesign de novo designed full-length IgG, cross-platform benchmark) (antibody, V domains shown)
VH: VQLVESGGGLVQPGGSLRLSCAASGFNIKSFWIHWVRQAPGKGLEWVAWIFALTGNTYYADSVKGRFTISADTSKNTAYLQMNSLRAEDTAVYYCAKASGVSIPLWFDVWGQGTLVTVSS
VL: DIQMTQSPSSLSASVGDKVTITCKASQDISNYLAWYQQKPGKAPKLLIYAASNRKYGVPSRFSGSGSGTDFTLTISSLQPEDFATYYCQQYYSTPLTFGQGTKVEIK
B3: binds [3].
